Molecular target: eGFP-DGKζ (fusion of enhanced green fluorescent protein and diacylglycerol kinase ζ) (UniProt Q80UP3 1-929)
Assay: co-IP

Chain of eGFP-DGKζ (fusion of enhanced green fluorescent protein and diacylglycerol kinase ζ) (Q80UP3 whole entry, the tested form may be a part): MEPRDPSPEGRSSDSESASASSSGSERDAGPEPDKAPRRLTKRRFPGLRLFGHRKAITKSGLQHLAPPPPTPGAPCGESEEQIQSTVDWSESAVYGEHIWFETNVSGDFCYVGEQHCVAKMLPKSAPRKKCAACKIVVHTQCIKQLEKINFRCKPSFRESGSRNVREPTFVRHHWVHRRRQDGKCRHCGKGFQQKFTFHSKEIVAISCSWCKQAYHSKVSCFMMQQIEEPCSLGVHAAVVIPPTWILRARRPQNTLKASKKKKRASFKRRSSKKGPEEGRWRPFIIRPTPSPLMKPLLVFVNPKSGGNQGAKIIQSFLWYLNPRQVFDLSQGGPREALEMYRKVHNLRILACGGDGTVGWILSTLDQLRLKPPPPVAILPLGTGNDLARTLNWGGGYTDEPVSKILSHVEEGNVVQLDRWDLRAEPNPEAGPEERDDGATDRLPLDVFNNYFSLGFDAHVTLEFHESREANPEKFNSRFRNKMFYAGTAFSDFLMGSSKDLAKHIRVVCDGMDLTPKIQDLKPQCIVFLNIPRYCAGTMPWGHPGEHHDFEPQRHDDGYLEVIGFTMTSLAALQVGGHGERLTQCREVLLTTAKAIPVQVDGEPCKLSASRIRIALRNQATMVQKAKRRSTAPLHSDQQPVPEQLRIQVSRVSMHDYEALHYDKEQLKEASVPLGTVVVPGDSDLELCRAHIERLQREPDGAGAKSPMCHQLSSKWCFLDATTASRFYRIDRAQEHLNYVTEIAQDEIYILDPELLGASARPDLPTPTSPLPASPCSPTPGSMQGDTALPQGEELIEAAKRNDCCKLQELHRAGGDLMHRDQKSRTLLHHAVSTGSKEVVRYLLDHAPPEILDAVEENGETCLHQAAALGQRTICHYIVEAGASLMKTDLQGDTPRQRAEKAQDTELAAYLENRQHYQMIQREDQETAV

B1: RasGRP1 (Ras guanyl nucleotide-releasing protein 1), from pEF6-huRasGRP1-myc/His wild-type plasmid (natural protein, human, UniProt O95267 1-797, looked up)
chain: MGTLGKAREAPRKPSHGCRAASKARLEAKPANSPFPSHPSLAHITQFRMMVSLGHLAKGASLDDLIDSCIQSFDADGNLCRSNQLLQVMLTMHRIVISSAELLQKVITLYKDALAKNSPGLCLKICYFVRYWITEFWVMFKMDASLTDTMEEFQELVKAKGEELHCRLIDTTQINARDWSRKLTQRIKSNTSKKRKVSLLFDHLEPEELSEHLTYLEFKSFRRISFSDYQNYLVNSCVKENPTMERSIALCNGISQWVQLMVLSRPTPQLRAEVFIKFIQVAQKLHQLQNFNTLMAVIGGLCHSSISRLKETSSHVPHEINKVLGEMTELLSSSRNYDNYRRAYGECTDFKIPILGVHLKDLISLYEAMPDYLEDGKVNVHKLLALYNHISELVQLQEVAPPLEANKDLVHLLTLSLDLYYTEDEIYELSYAREPRNHRAPPLTPSKPPVVVDWASGVSPKPDPKTISKHVQRMVDSVFKNYDHDQDGYISQEEFEKIAASFPFSFCVMDKDREGLISRDEITAYFMRASSIYSKLGLGFPHNFQETTYLKPTFCDNCAGFLWGVIKQGYRCKDCGMNCHKQCKDLVVFECKKRAKNPVAPTENNTSVGPVSNLCSLGAKDLLHAPEEGPFTFPNGEAVEHGEESKDRTIMLMGVSSQKISLRLKRAVAHKATQTESQPWIGSEGPSGPFVLSSPRKTAQDTLYVLPSPTSPCPSPVLVRKRAFVKWENKDSLIKSKEELRHLRLPTYQELEQEINTLKADNDALKIQLKYAQKKIESLQLEKSNHVLAQMEQGDCS
fold binding relative to DGKα: ≤ 3 fold

— PMC4096120 (Science signaling, 2013)
